Measurements reported in publication PMC5269746.

How the values were obtained:
[1] = tested on: HNH nanocarrier (H5WYG endosome release motif, DNA condensing motif, NLS) (synthetic construct); assay: EMSA (agarose gel retardation); conditions: not given in the material (gel retardation methods text absent); ethidium bromide staining
[2] = tested on: GNH nanocarrier (GP41 endosome release motif, DNA condensing motif, NLS) (synthetic construct); assay: EMSA (agarose gel retardation); conditions: not given in the material (gel retardation methods text absent); ethidium bromide staining

pGL3 plasmid
binding (N/P ratio for complete retardation) [1]: 1
binding (N/P ratio for complete retardation) [2]: 1
